# Numbering of substitutions follows the chain as printed.
# B1: 370_G08 (antibody, V domains shown)
# VH: EVQLLESGGGLVQPGGSLRLSCAASGFTFSDYSMNWVRQAPGKGLEWVAGINYNGGYTGYADSVKGRFTISRDNSKNTLYLQMNSLRAEDTAVYYCARGATWHDTHLDYWGQGTLVTVSS
# VL: DIQMTQSPSSLSASVGDRVTITCRASQSILTYLNWYQQKPGKAPKLVIYAATSRASGVPSRFSGSGSGTDFTLTISSLQPEDFATYYCQQSYESPLTFGGGTKVEIK
# B2: 374_D04 (antibody, V domains shown)
# VH: B1 VH with D31S, G59S
# VL: B1 VL with T31S, A55H, E93D, S94T
# B3: 365_B01 (antibody, V domains shown)
# VH: B1 VH with S30D, D31S, S33G, N35H, G50S, G55S, G59S, G99S, T101N, H106A
# VL: B1 VL with L30S, T31S, L33V
# B4: 365_C12 (antibody, V domains shown)
# VH: B1 VH with D31S, S33G, G55S, T58K, G59S, G99S, T101N, H106A
# VL: B1 VL with L30V, T31S, L33V, A51V, R54L, E93D, S94T
# B5: 365_E05 (antibody, V domains shown)
# VH: B1 VH with D31S, S33G, N35H, G59S, G99S, T101N, H106A
# VL: B1 VL with L30V, T31S, L33V, V47L, R54L, E93D, S94N
# B6: 370_H04 (antibody, V domains shown)
# VH: B1 VH with D31S, A49S, G50N
# VL: B1 VL with T31S, L33V, V47L, E93D, S94L
# B7: 371_G01 (antibody, V domains shown)
# VH: B1 VH with A49S, G50N, G59S
# VL: B1 VL with V47L, R54L, E93D, S94L
# B8: 371_B01 (antibody, V domains shown)
# VH: B1 VH with S30D, D31S, A49S, G50N, G55S
# VL: B1 VL with T31S, L33V, V47L, R54L, E93D, S94L
# B9: 376_A07 (antibody, V domains shown)
# VH: B1 VH with D31S, A49S, T58K, G59S
# VL: B1 VL with V47L, E93D
# B10: 372_B09 (antibody, V domains shown)
# VH: B1 VH with D31S, A49S, G50S, G55S, G59S
# VL: B1 VL with V47L, S94T
# B11: 371_C06 (antibody, V domains shown)
# VH: B1 VH with D31S, A49S, G50S, G59S
# VL: B1 VL with L30S, T31S, V47L, A51V, E93D, S94L
# B12: 374_A04 (antibody, V domains shown)
# VH: B1 VH with D31S, G59S
# VL: B1 VL with E93D, S94T
# B13: 371_H11 (antibody, V domains shown)
# VH: B1 VH with D31S, A49S, T58K
# VL: B1 VL with V47L, A51T, A55H
# B14: 365_A03 (antibody, V domains shown)
# VH: B1 VH with D31S, G55S, T58K, G99S, T101N, H106A
# VL: B1 VL with T31S, A51V, E93D
# B15: 372_E08 (antibody, V domains shown)
# VH: B1 VH with A49S, G50N, G59S
# VL: B1 VL with L30I, V47L, E93N, S94L
# B16: 374_H05 (antibody, V domains shown)
# VH: B1 VH with D31S, G59S
# VL: B1 VL with T31S, L33V, E93D, S94N
# B17: 375_A03 (antibody, V domains shown)
# VH: B1 VH with S30D, D31S, G59S
# VL: B1 VL with V47L, A55H, E93D, S94N
# B18: 365_A11 (antibody, V domains shown)
# VH: B1 VH with S30D, S33G, A49S, G55S, G59S, G99S, T101N, H106A
# VL: B1 VL with T31S, R54L
# B19: 371_E12 (antibody, V domains shown)
# VH: B1 VH with S30D, D31S, A49S, G55S, T58K, G59S
# VL: B1 VL with T31S, V47L, R54L, E93D, S94T
# B20: 375_B03 (antibody, V domains shown)
# VH: B1 VH with D31S, G59S
# VL: B1 VL with V47L, E93D
# B21: 371_F09 (antibody, V domains shown)
# VH: B1 VH with D31S, G59S
# VL: B1 VL with V47L, E93D, S94N
# B22: 365_D12 (antibody, V domains shown)
# VH: B1 VH with S30D, D31S, S33G, A49S, G50N, G99S, T101N, H106A
# VL: B1 VL with L30V, E93D, S94T
# B23: 365_C10 (antibody, V domains shown)
# VH: B1 VH with D31S, S33G, N35H, G50S, G59S, G99S, T101N, H106A
# VL: B1 VL with T31S, L33V, V47L, R54L
# B24: 370_H06 (antibody, V domains shown)
# VH: B1 VH with S30D, G50N
# VL: B1 VL with V47L, S94T
# B25: 365_E01 (antibody, V domains shown)
# VH: B1 VH with A49S, G55S, T58K, G99S, T101N, H106A
# VL: B1 VL with L30I, T31S, V47L, E93D
# B26: 365_E07 (antibody, V domains shown)
# VH: B1 VH with S30D, D31S, S33G, N35H, A49S, G55S, G59S, R98K, G99S, T101N
# VL: B1 VL with T31S, V47L, E93D, S94N
# B27: 371_E08 (antibody, V domains shown)
# VH: B1 VH with D31S, A49S, G50N, G55S, T58K, G59S
# VL: B1 VL with L30V, T31S, L33V, A55H, E93D, S94L
# B28: 372_H11 (antibody, V domains shown)
# VH: B1 VH with D31S, S33G, N35H, G59S
# VL: B1 VL with T31S, L33V, V47L, S94N
# B29: 365_C11 (antibody, V domains shown)
# VH: B1 VH with D31S, T58K, G59S, G99S, T101N
# VL: B1 VL with L30I, A51V, E93S, S94L
# B30: 373_D06 (antibody, V domains shown)
# VH: B1 VH with D31S, G59S
# VL: B1 VL with L30V, V47L, E93D, S94T
# B31: 371_F03 (antibody, V domains shown)
# VH: B1 VH with D31S, A49S, G59S
# VL: B1 VL with L30I, V47L, R54L, A55H, E93D, S94N
# B32: 365_A12 (antibody, V domains shown)
# VH: B1 VH with D31S, S33G, N35H, G59S, R98K, G99S, T101N
# VL: B1 VL with L33V, V47L, A55H, S94N
# B33: 375_H08 (antibody, V domains shown)
# VH: B1 VH with D31S, A49S, G59S
# VL: B1 VL with V47L, R54L, E93D
# B34: 365_B06 (antibody, V domains shown)
# VH: EVQLLESGGGLVQPGGSLRLSCAASGFTFDSYGMHWVRQAPGKGLEWVSNINYNGGYKSYADSVKGRFTISRDNSKNTLYLQMNSLRAEDTAVYYCARSANWHDTALDYWGQGTLVTVSS
# VL: B1 VL with L33V, V47L, A51T, R54L, E93D, S94L
# B35: 371_E09 (antibody, V domains shown)
# VH: B1 VH with A49S, G55S, G59S
# VL: B1 VL with V47L, E93N
# B36: 375_C11 (antibody, V domains shown)
# VH: B1 VH with D31S, A49S, G50S, G59S
# VL: B1 VL with T31S, L33V, V47L, A55H, E93D, S94T
# B37: 374_A05 (antibody, V domains shown)
# VH: B1 VH with S33G, G50N, T58K
# VL: B1 VL with L30V, T31R, R54L, S94L
# B38: 373_B09 (antibody, V domains shown)
# VH: B1 VH with S30D, D31S, A49S, T58K, G59S
# VL: B1 VL with T31S, R54L, S94T
# B39: 371_C07 (antibody, V domains shown)
# VH: B34 VH with H35N, K58T, S59G, S99G, N101T
# VL: B1 VL with T31S, V47L, R54L, E93D, S94T
# B40: 375_F10 (antibody, V domains shown)
# VH: B1 VH with D31S, A49S
# VL: B1 VL with E93D, S94T
# B41: 365_D09 (antibody, V domains shown)
# VH: B34 VH with D30S, N50G, G55S, K58T
# VL: B1 VL with T31S, V47L, Y92D
# B42: 376_A02 (antibody, V domains shown)
# VH: B1 VH with D31S, T58K, G59S
# VL: B1 VL with T31S, V47L, E93D, S94L
# B43: 374_G05 (antibody, V domains shown)
# VH: B1 VH with D31S, A49S, G50N, G55S, T58K
# VL: B1 VL with L30I, T31S, V47L, E93D, S94L
# B44: 374_D09 (antibody, V domains shown)
# VH: B1 VH with S30D, D31S, S33G, G50N, T58K
# VL: B1 VL with L30I, T31S, L33V, V47L, R54L, E93D, S94T
# B45: 365_B07 (antibody, V domains shown)
# VH: B34 VH with D30S, S49A, N50S, G55S, K58T
# VL: B1 VL with V47L, S94N
# B46: 373_F07 (antibody, V domains shown)
# VH: B1 VH with D31S, A49S, G55S, T58K, G59S
# VL: B1 VL with T31S, V47L, R54L, S94T
# B47: 365_B11 (antibody, V domains shown)
# VH: B34 VH with D30S, S49A, N50G, K58T
# VL: B1 VL with L30I, T31S, A51T, A55H, E93D
# B48: 365_C01 (antibody, V domains shown)
# VH: B34 VH with H35N, N50S, G55S, A106H
# VL: B1 VL with L30V, T31S, A51V
# Biological target: Human Fc (human)
# Test: ELISA; negative control
row,optical density [OD],Binder
1,0.364,B1
2,0.179,B2
3,0.445,B3
4,0.332,B4
5,0.379,B5
6,0.596,B6
7,0.375,B7
8,0.464,B8
9,0.221,B9
10,0.308,B10
11,0.308,B11
12,0.275,B12
13,0.363,B13
14,0.342,B14
15,0.369,B15
16,0.257,B16
17,0.203,B17
18,0.299,B18
19,0.398,B19
20,0.209,B20
21,0.602,B21
22,0.34,B22
23,0.397,B23
24,0.358,B24

row,optical density [OD],Binder
1,0.363,B25
2,0.302,B26
3,0.251,B27
4,0.392,B28
5,0.296,B29
6,0.192,B30
7,0.252,B31
8,0.422,B32
9,0.204,B33
10,0.281,B34
11,0.306,B35
12,0.199,B36
13,0.159,B37
14,0.172,B38
15,0.287,B39
16,0.21,B40
17,0.302,B41
18,0.22,B42
19,0.158,B43
20,0.171,B44
21,0.269,B45
22,0.172,B46
23,0.305,B47
24,0.376,B48
